Results published in publication PMC11878792, “Structural basis for aminoacylation of cellular modified tRNA^Lys3 by human lysyl-tRNA synthetase” (Nucleic Acids Research, 2025).

Biological target: T1, human lysyl-tRNA synthetase (h-LysRS), wild type, full length (human, UniProt Q15046 1-597)
T1 construct: Human lysyl-tRNA synthetase (LysRS), full length, wild type; printed residue numbers (NTD 1-65, S207, linker 208-220) fit the cytosolic form; Dimer in the cryo-EM reconstructions; No removal of the His tag is described; also called wt LysRS; wt h-LysRS; source: E. coli BL21 (DE3), purified (PEI and ammonium sulfate precipitation, Ni-NTA, hydroxyapatite)
Assay: cryo-EM structure; 10 uM h-LysRS-tRNALys3 (cellular modified, 1:1), 100 uM AIMP2-N36, 2.5 mM L-lysine, 2 mM AMP; complex formed 60 min at 4°C; 0.075% CHAPSO added before freezing
Conditions: both partners purified

T1 sequence (Q15046 whole entry): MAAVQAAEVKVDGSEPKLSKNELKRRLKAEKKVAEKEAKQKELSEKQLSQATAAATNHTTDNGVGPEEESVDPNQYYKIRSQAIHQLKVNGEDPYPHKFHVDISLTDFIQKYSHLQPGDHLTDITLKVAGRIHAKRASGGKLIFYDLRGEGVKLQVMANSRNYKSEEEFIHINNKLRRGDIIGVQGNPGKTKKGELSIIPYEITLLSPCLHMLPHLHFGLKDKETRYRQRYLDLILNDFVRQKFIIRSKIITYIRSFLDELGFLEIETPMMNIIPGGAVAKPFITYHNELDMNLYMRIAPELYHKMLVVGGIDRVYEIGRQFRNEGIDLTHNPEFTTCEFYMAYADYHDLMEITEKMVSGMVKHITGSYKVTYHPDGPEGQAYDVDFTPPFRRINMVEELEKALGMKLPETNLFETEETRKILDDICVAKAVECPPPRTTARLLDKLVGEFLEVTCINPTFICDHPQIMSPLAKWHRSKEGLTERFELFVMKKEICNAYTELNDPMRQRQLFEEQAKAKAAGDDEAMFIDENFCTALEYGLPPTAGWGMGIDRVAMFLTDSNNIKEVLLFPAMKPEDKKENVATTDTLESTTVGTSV

- stoichiometry N: 2 copies per LysRS dimer
B1: AIMP2-N36 peptide (LysRS interacting N-terminal region of AIMP2) (peptide)
peptide: MPMYQVKPYHGGGAPLRVELPTCMYRLPNVHGRSYG
notes: also called AIMP2 peptide; p38; source: synthetic peptide, bought: Biosynth
